A word on the Kd: it is the free concentration of one partner at which half of the binding sites on the other are occupied at equilibrium, for simple one-to-one binding. Read a low Kd as higher affinity.

Changes are numbered by the printed parent chain. Read-outs that look alike come from different tables or passages of the source.

Common to all, as to experiment: BLI
In assay [1] the target is SARS-CoV-2 Spike Trimer, His Tag (BA.5/Omicron) (SARS-CoV-2, Omicron BA.5, strain).
The target in assay [2] is T1, SARS-CoV-2 B.1.617.2 Spike S1+S2 trimer (ECD, His tag) (SARS-CoV-2, Delta (B.1.617.2), L452R | T478K).
In assay [3] the target is Wild-type SARS-CoV-2 full length spike trimer (SARS-CoV-2, wild type (Wuhan-Hu-1), UniProt P0DTC2).
Assay [4] has as its target Wuhan S6P SARS-CoV-2 full length spike trimer (SARS-CoV-2, Wuhan, UniProt P0DTC2, stabilised).
Assay [5] deals with T1, SARS-CoV-2 B.1.617.2 Spike S1+S2 trimer …. This is another data set of the same source.

B1: 80R_5 antibody (antibody, V domains shown)
VH: EVQLVQSGGGVVQPGKSLRLSCKASGFAFSNYAMHWVRQAPGKGLEWVAVISYDGSYKYYADSVKGRFTISRDNSKNTLYLQMNSLRAEDTAVYYCARDRSYYLDYWGQGTLVTVSS
VL: TTLTQSPATLSLSPGERATLSCKASEDIGTALAWYQQKPGQAPRPLIFDGAILAPGIPDRFSGSGSGTDFTLTISRLEPEDFAVYYCHNVYSWPPTFGQGTKVEVK
For the molecule B1, the Kd is 1.12 nM in assay [1]; 0.441 nM in assay [2]; 0.468 nM in assay [3]; under 0.001 nM in assay [4]; 0.443 nM in assay [5].

B2: 80R_23 antibody (antibody, V domains shown)
VH: B1 VH with K23V, A28D, S30K, N31S, R100N, S101A
VL: B1 VL with K23H, A31N, I52Q, H88Q, N89Q, V90I, S92N, T96S
With B2, the Kd in assay [3] was 0.858 nM; in assay [5] it was 0.625 nM.

B3: 80R_18 antibody (antibody, V domains shown)
VH: B1 VH with K23V, A28N, N31E, R100N, S101A
VL: B1 VL with K23Q, A31N, G50A, I52Q, D69Q, H88Q, N89Q, V90I, S92N, T96S
Regarding B3, the Kd in assay [3] was 2.68 nM.

B4: 80R_6 antibody (antibody, V domains shown)
VH: B1 VH with K23T, A28N, N31E
VL: B1 VL with T30S, A31N, G50A, I52Q, H88F, N89Q, V90I, S92T
In assay [3], B4 had a Kd of 4.16 nM.

B5: 80R_21 antibody (antibody, V domains shown)
VH: B1 VH with K23V, A28D, N31K, R100N, S101A
VL: B1 VL with A31N, G50A, H88M, N89Q, V90I, S92N, T96S
In the case of B5, in assay [3], binding was put at a Kd of 3.1 nM.

B6: 80R_22 antibody (antibody, V domains shown)
VH: B1 VH with K23V, A28D, S30K, N31S, R100N, S101A
VL: B1 VL with K23H, D49Y, G50A, I52Q, H88A, N89Q, V90Y, Y91W, W93L
In assay [3], B6 came in with a Kd of 1.39 nM.

B7: 80R_7 antibody (antibody, V domains shown)
VH: B1 VH with K23Q, A28D, S30K, N31S, Y57I, Y59H
VL: B1 VL with K23I, E26Q, S66A, H88M, N89Q, V90T, Y91W, S92T, W93L, P95V
In turn, B7 came in with a Kd in assay [3] of 2.85 nM.

B8: 80R_10 antibody (antibody, V domains shown)
VH: B1 VH with K23V, A28D, S30K, N31S, S56R
VL: TTLTQSPATLSLSPGERATLSCHASEDIGTALAWYQQKPGQAPRPLIFYAAQLAPGIPDRFSGSGSGTDFTLTISRLEPEDFAVYYCFQSWTLPLTFGQGTKVEVK
In assay [3], B8 showed a Kd of 1.82 nM.

B9: 80R_19 antibody (antibody, V domains shown)
VH: B1 VH with K23V, A28D, S30K, N31S, R100N, S101A
VL: B8 VL with A31N, Y49D, F88M, S90I, W91H, T92N, L93W, L95P, T96S
Consider B9, for which binding in assay [3] was put at a Kd of 0.845 nM. This Kd lies about 2.2-fold lower than the previous one.

B10: 80R_8 antibody (antibody, V domains shown)
VH: B1 VH with K23V, A28D, S30K, S56K
VL: B1 VL with K23I, E26Q, A31N, S66A, H88Q, N89Q, V90T, S92N
In assay [3], B10 came in with a Kd of 114 nM.

B11: 80R antibody (antibody, V domains shown)
VH: B1 VH with K23A, N31S, Y57N
VL: TTLTQSPATLSLSPGERATLSCRASQSVRSNLAWYQQKPGQAPRPLIYDASTRATGIPDRFSGSGSGTDFTLTISRLEPEDFAVYYCQQRSNWPPTFGQGTKVEVK
B11: in assay [3], the binding result is on record as “no binding”.

Source of the values: PMC10069166 (Heliyon, 2023).
